Experiments:
[1] = target: murine PD-1-transmembrane PD-1-CD28 fusion protein (PTM) (murine); assay: cell-based or functional assay
[2] = target: T1, recombinant murine PD-L1 Fc chimera (R&D Systems) (murine, UniProt Q9EP73 19-238); assay: flow cytometry; transduced murine T cells incubated with recombinant PD-L1-Fc
T1 construct: also called recombinant PD-L1; recombinant PD-L1-Fc; not shown: Fc part of the bought R&D Systems chimera (detected with anti-human IgG)
T1 sequence (Q9EP73 19-238, change not shown): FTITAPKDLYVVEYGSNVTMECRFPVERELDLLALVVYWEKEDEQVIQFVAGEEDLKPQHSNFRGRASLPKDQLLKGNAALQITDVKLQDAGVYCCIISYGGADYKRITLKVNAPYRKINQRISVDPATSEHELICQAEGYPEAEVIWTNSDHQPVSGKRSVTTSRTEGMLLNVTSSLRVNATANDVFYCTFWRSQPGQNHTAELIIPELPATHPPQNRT

| Molecule | IFN-γ release in coculture of PTM-transduced OT-1 T cells with tumor cells [1] [ng/mL] | binding result [2] |
| --- | --- | --- |
| full length murine PD-L1 on Panc02-OVA-PD-L1 tumor cells (from UniProt Q9EP73 19-290) (ligand) | 545 |  |
| murine PD-1-transmembrane PD-1-CD28 fusion protein (PTM) (receptor, Expressed on retrovirally transduced primary murine T cells; The entry starts at PD-1 residue 1, so it includes the signal peptide; also called mPTM; PTM fusion protein) LEVPNGPWRSLTFYPAWLTVSEGANATFTCSLSNWSEDLMLNWNRLSPSNQTEKQAAFCNGLSQPVQDARFQIIQLPNRHDFHMNILDTRRNDSGIYLCGAISLHPKAKIEESPGAELVVTERILETSTRYPSPSPKPEGRFQGMVIGIMSALVGIPVLLLLAWALNSRRNRLLQSDYMNMTPRRPGLTRKPYQPYAPARDFAAYRP |  | binds |
